Paper doi:10.1101/2024.10.27.620470 (bioRxiv, 2024)
Where “and” joins values, the source holds several entries; their conditions need not be identical. Identical values can stand only once.

What was measured:
[1] = molecular target: NTD-N_(41-174) protein double mutant (WV133134AA) (SARS-CoV-2) (UniProt P0DTC9); assay: ITC
[2] = molecular target: N-terminal domain of SARS-CoV-2 nucleocapsid protein (NTD-N_(41-174)) (SARS-CoV-2) (UniProt P0DTC9); assay: ITC
[3] = molecular target: NTF2-like domain of Ras GTPase-activating protein SH3-domain-binding protein 1 (G3BP1_(NTF-2)) (human, UniProt Q13283 1-139); assay: ITC
[4] = molecular target: GFP-tagged G3BP1_(NTF-2) (G3BP1_(NTF-2)-GFP) (human, UniProt Q13283 1-139); assay: fluorescence intensity-based PPIs plate assay

NTF2-like domain of Ras GTPase-activating protein SH3-domain-binding protein 1 (G3BP1_(NTF-2)) (from UniProt Q13283 1-139) (domain or fragment)
fold higher KD than the single mutants (V134A and W133A) [1]: 2 fold and 4 fold | Kd [2]: 5.5 µM

KDGIIWVATEG [N_(128-138) peptide 1 (KDGIIWVATEG)]
Kd [3]: 11.8 µM

KAGIIAAATEG [mutant N_(128-138) peptide 3 (KAGIIAAATEG)]
binding result [4]: binds

KDGIIAAATEG [mutant N_(128-138) peptide 2 (KDGIIAAATEG)]
binding result [4]: binds
